Test results from PMC11840598.

Target: TM expressed on COS-7 cells from pTM-GFP recombinant plasmids (UniProt P07204)
Experiment: atomic force microscopy

Chain of UniProt P07204 (P07204 19-575): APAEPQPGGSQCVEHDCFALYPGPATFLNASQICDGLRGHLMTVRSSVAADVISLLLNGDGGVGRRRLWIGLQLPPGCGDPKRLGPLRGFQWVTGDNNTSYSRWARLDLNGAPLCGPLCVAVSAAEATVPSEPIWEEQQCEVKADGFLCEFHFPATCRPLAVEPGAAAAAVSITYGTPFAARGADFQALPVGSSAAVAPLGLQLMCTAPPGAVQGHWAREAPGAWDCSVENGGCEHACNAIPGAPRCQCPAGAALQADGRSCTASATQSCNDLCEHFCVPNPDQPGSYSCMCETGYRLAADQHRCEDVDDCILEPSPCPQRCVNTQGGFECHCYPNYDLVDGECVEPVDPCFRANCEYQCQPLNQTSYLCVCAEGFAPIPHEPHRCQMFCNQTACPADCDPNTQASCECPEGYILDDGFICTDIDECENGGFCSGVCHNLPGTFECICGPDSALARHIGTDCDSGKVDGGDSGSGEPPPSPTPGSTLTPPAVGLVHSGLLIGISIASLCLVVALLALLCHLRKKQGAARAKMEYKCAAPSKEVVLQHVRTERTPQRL

interactional force (single-molecule rupture force), with atorvastatin: 84 pN
interactional force (single-molecule rupture force), with pitavastatin: 87 pN
interactional force (single-molecule rupture force), with rosuvastatin: 74.4 pN
Substance: human alpha thrombin (from UniProt P00734 364-622) (enzyme)
